Source: article PMC9890229

What was measured:
[1] = target: Crc R90E,Y91F (Flag-tagged, from pME4510crc(R90E,Y91F)Flag) (Pseudomonas aeruginosa) (UniProt Q51380)
[2] = target: Pseudomonas aeruginosa Hfq (Pseudomonas aeruginosa) (UniProt Q9HUM0)
[3] = target: Hfq (Pseudomonas aeruginosa) (UniProt Q9HUM0); assay: EMSA; details: EMSA: 20 mM Tris-HCl pH 8.0, 40 mM NaCl, 10 mM KCl, 1 mM MgCl2; 200 nM RNA; 15 min at 37 C; 4% PAA gel in 1x TBE at 4 C, SYBR gold

Row | Substance | translational repression of the rbsB+13::lacZ reporter gene (β-galactosidase activity) in P. aeruginosa PAO1Δcrc [1] [fold] | de-repression of translation of the amiE+60::lacZ reporter gene (β-galactosidase activity) in P. aeruginosa PAO1Δcrc [2] [fold] | de-repression of translation of the estA+18::lacZ reporter gene (β-galactosidase activity) in P. aeruginosa PAO1Δcrc [2] [fold] | binding [3]
1 | Crc R90E,Y91F (Flag-tagged, from pME4510crc(R90E,Y91F)Flag) (from UniProt Q51380 1-259) (natural protein) | 2 | 7 | 2 | 
2 | GGAACGCAAACGUUUGCGUCUGGAUAAUCUCCUGGAAAAGCCUCAAUACAACGAUAAGAAAAGCUGGAGGAUACACCAUGAAGCGGGUCGCUUCCCGGCGCCUGUUGGCU [rbsB110] |  |  |  | binds
3 | GGCUGAGGAGGCUUUACGACGGGCCCCGGGGCGCAUGCCGACGACGCGGCGGCCCGACAAUAAAAACAAAUCAUGGAGUAAGAGAAUGAUCAGAAUGGCGCUCAAGCCACUGGUAGCG [estA118] |  |  |  | binds
4 | GGGCCUUUUUUCGUCCCGAAAAAAUAACAACAAGAGGUGAUAUCCAUGCGUCACGGCGAUAUUUCCAGCAGCAACGACACCGUCGGAGUGGCGGUGGUCAACUAC [amiE105] |  |  |  | binds
